Results reported in PMC7803741.
Read-outs that look alike come from different tables or passages of the source.

Key:
GABARAP = GABARAP (UniProt Q9DCD6); test: ITC; conditions: reference: unphosphorylated synthetic γ2-GIM peptide; sites Y405
[1] = target: clathrin adaptor protein AP2 (AP2 μ1 subunit as printed) (UniProt P84092); test: ITC; conditions: reference: unphosphorylated synthetic γ2-GIM peptide; sites Y405
[2] = target: GABAA receptor-associated protein (GABARAP) (mouse) (UniProt Q9DCD6); test: ITC; VP-ITC at 25 °C; 50 mM Tris pH 7.8, 100 mM NaCl, 1 mM EDTA, 1 mM DTT; γ2 subunit protein or peptide (100-200 μM) injected into GABARAP, GABARAPL1 or AP2 (10-20 μM) in the cell; one-site binding model
[3] = target: GABAAR-associated protein (GABARAP) (mouse) (UniProt Q9DCD6); test: ITC; VP-ITC, 25 °C; 50 mM Tris pH 7.8, 100 mM NaCl, 1 mM EDTA, 1 mM DTT; γ2 subunit protein or peptide (100–200 μM) injected into GABARAP, GABARAPL1 or AP2 (10–20 μM) in the cell; one-site binding model
[4] = target: clathrin adaptor protein AP2 (AP2 μ1 subunit as printed) (rat) (UniProt P84092); test: as above
[5] = target: GABAAR-associated protein (GABARAP) (mouse) (UniProt Q9DCD6); test: as above; remark: listed apart in the source

Sequence of clathrin adaptor protein AP2 (AP2 μ1 subunit as printed) (rat) (P84092 whole entry): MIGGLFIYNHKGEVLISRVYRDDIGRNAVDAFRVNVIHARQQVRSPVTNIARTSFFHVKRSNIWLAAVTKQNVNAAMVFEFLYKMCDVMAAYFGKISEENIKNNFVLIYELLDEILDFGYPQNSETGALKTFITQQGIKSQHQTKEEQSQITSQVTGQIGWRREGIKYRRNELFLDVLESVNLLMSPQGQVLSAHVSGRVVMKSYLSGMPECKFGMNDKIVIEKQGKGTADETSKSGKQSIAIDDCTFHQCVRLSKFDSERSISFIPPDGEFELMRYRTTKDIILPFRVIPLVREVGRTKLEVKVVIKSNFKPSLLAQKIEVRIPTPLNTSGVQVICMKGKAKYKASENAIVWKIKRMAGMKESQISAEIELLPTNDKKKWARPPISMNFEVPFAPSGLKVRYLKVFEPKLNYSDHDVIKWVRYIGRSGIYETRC
Sequence of GABAAR-associated protein (GABARAP) (mouse) (Q9DCD6 whole entry): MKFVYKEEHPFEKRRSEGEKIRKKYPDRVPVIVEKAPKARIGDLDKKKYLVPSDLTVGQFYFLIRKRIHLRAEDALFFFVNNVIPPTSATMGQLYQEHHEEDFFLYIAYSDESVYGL
Sequence of clathrin adaptor protein AP2 (AP2 μ1 subunit as printed) (P84092 whole entry, looked up, tested part not stated): as the sequence (P84092 whole entry) above
Sequence of GABAA receptor-associated protein (GABARAP) (mouse) (Q9DCD6 whole entry): as the sequence (Q9DCD6 whole entry) above
Sequence of GABARAP (Q9DCD6 whole entry, looked up): as the sequence (Q9DCD6 whole entry) above

Kd [3]	Kd [4]	Substance	other results
		GABAA receptor γ2 subunit (γ2-GABAAR; γ2-GIM = residues 398–415) γ2-GIM, 398-415 (from UniProt P22723-2) pY405 peptide	binding against the reference (GABARAP): lost; binding against the reference [1]: lost
		GABAA receptor γ2 subunit GIM (GABARAP interacting motif, 398-415) (peptide)	stoichiometry N [2]: 1.06
4.2 µM	0.25 µM	GABAAR γ2 subunit GIM (GABARAP interacting motif, 398–415) (from UniProt P22723-2 398-415) (peptide)	Kd [5]: 4.9 µM
5.1 µM		recombinant of the TM3–TM4 ICD lacking the 424–441 octadecapeptide (from UniProt P22723-2 375-442) (domain or fragment)	
3.6 µM	0.45 µM	synthesized γ2-GIM WT peptide (from UniProt P22723-2 398-415)	
0.82 µM	5.2 µM	synthetic pY403 γ2-GIM (from UniProt P22723-2 398-415) (peptide)	
